Series [1] deals with T1, YT521-B YTH domain (Rattus norvegicus, UniProt Q9QY02 347-502). The experiment in a line: ITC; 20 C; 410 uM RNA into 14 uM protein; 25 mM NaH2PO4, 25 mM NaCl, 10 mM beta-mercaptoethanol, pH 7; ITC and NMR titrations at 20 C, structure at 30 C. A general note: In ITC the heat of successive injections is recorded.
Series [2] has as its target T1, YT521-B YTH domain. Description: ITC; 20 C; 125 uM RNA into 10 uM protein; 25 mM NaH2PO4, 25 mM NaCl, 10 mM beta-mercaptoethanol, pH 7; ITC and NMR titrations at 20 C, structure at 30 C.

B1: 5'-UGACAC-3' (ssRNA)
RNA: UGACAC
One may read the Kd as the concentration at which binding is half-saturated. Read a high Kd as weaker binding. The molecule B1 yielded a Kd in series [1] of 5000 nM. In other words, the single-digit micromolar range.

B2: 5'-UGm6ACAC-3' (ssRNA)
RNA: UGACAC
modifications: N6-methyladenosine at position 3
The molecule B2 returned a Kd in series [2] of 100 nM.

These data come from publication PMC4267619.
